The target of assay [1] is Gag-CY (HIV-1). The experiment in a line: split reporter (BiFC, NanoBiT); BiFC quantified by flow cytometry: 293T cells co-transfected with 0.25 μg of each BiFC construct and mRFP1, harvested about 14 h after transfection and fixed; percent of mRFP+ cells that are YFP+, and mean intensity of YFP+ cells. For orientation: Flow cytometry measures light scatter and fluorescence of single cells or particles in a stream.

Assay [2] deals with Gag-CY (HIV-1). The description is as above. This is another data set of the same source.

Read-outs that look alike come from different tables or passages of the source.

In the case of Gag-NY (natural protein), the percent of mRFP+ cells that are YFP+ (BiFC) in the assay with Gag-CY (HIV-1) [1] came to 3.5%; with Gag-CY (HIV-1) [2] it was 3.3%.

Source of the values: paper PMC2700067.
